Measured values published in paper PMC11309785.

Molecular target: BG505_B23 trimer, His-tagged (HIV-1 isolate BG505)
Assay: SPR; ProteOn XPR36, HC30M XanTec chip; His-tagged trimer (300 to 400 RU, 1 ug/mL) captured by immobilised rabbit anti-His-tag pAb, Fab flowed as analyte at 30 ul/min for 3 min, 5 min dissociation; 1x HBS-EP+ pH 7.4 with BSA 1 mg/ml; equilibrium or kinetic (Langmuir) fits; highest concentration 2x10^-5 M, approximate upper affinity limit 1.6x10^-11 M

B1: RM_N332_08 Fab (Fab, V domains shown)
VH: QVQLVQSGAEVKKPGSSVKVSCKASGYTFTDHYIHWVRQAPRQGLEWMGWINPYNGNTNYAQKFQGRVTLTRDTSTTTVYMELISLRSEDTAVYYCARGGEYCTGFGCFAGKGDNSLDVWGRGVLVSVSS
VL: DIVMIQTPLSLPVTPGEPASISCRSSQSLFDIEDETTYLEWFLQKPGQSPQPLIYEVSNRASGVPDRFSGSGSDTAFTLKISRVEAEDVGIYYCMQGIEYPFTFGPGTKVEIK
**Q.** For B1, which Kd is on record?
**A.** < 100 nM

B2: RM_N332_07 Fab (Fab, V domains shown)
VH: QVQLQESGPGLVKPSETLSLTCAVSGASFSSFWWDWIRQPPGRGLEWIGDINGNSGSTNYNPSLKSRVTISKDASKSQFSLKLTSVTAADTAVYYCALQSVTYYEDDSGHYETEMAKFWGQGVLVTVSS
VL: QPVLTQPPSVSGAPGQRVTISCSGSSSNIGGYHVQWYQQLPGTAPKLLIYESNKRPSGISDRFSASQFGTSASLTITGLQSEDEADYYCQSYDSSVSAQVFGGGTRLTVL
**Q.** B2 was tested. Which Kd did it give?
**A.** < 100 nM
